Earlier results, collected in article PMC7488417.

Target: cJun LZ (Homo sapiens) (UniProt P05412)
Test: ITC

Chain of cFos LZ (P01100 162-193): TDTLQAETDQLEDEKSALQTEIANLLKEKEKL
Chain of cJun LZ (Homo sapiens) (P05412 277-308): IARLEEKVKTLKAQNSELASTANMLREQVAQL

Kd: 26.6 µM
Substance: cFos LZ (from UniProt P01100)
